Where no end group is shown, it is not given here. [ ]: non-standard residue; d: D form. The star is where a group is joined. 1Nal = N[C@@H](Cc1cccc2ccccc12)C(=O)O; Stearoyl = CCCCCCCCCCCCCCCCCC(=O)*; Palmitoyl = CCCCCCCCCCCCCCCC(=O)*; Myristoyl = CCCCCCCCCCCCCC(=O)*; PheCl2 = dichlorophenylalanine; Lauroyl = CCCCCCCCCCCC(=O)*; Decanoyl = CCCCCCCCCC(=O)*; Nle = CCCC[C@H](N)C(=O)O; Octanoyl = CCCCCCCC(=O)*

The chains are these.
T1: rat PrRP receptor in RC-4B/C cells (rat, UniProt Q64121 1-370)
T1 construct: whole, on cells; also called the rat receptor; GPR10
T1 sequence (looked up): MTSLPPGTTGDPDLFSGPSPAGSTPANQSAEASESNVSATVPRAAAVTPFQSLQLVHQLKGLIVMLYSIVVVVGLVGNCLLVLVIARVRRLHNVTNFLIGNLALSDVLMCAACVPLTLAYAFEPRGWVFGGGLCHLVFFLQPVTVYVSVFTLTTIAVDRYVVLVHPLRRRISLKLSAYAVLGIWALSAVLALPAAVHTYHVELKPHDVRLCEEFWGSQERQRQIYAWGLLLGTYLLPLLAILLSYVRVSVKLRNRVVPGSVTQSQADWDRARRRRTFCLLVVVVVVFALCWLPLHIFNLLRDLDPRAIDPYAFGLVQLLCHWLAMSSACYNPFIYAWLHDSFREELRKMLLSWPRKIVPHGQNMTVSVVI

T2: human PrRP receptor, GPR10, transfected in CHO cells (human, UniProt P49683 1-370)
T2 construct: whole, on cells; also called human GPR10 receptor; the human receptor GPR10 in CHO cells
T2 sequence (looked up): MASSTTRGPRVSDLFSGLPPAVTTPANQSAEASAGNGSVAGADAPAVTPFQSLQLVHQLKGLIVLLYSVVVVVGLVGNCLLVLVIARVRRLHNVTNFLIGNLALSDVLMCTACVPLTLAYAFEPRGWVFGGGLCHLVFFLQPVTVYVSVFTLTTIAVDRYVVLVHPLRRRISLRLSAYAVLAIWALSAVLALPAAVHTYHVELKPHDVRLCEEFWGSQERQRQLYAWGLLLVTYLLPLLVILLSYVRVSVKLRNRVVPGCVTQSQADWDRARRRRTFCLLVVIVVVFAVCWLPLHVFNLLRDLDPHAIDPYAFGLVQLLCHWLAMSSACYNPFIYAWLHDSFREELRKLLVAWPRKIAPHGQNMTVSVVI

B1: analog no. 35 (peptide)
peptide: Palmitoyl-SRAHQHS[Nle]ETRTPDINPAWYTGRGIRPVGRY-NH2
SMILES: CCCCCCCCCCCCCCCC(=O)N[C@@H](CO)C(=O)N[C@@H](CCCNC(=N)N)C(=O)N[C@@H](C)C(=O)N[C@@H](Cc1c[nH]cn1)C(=O)N[C@@H](CCC(N)=O)C(=O)N[C@@H](Cc1c[nH]cn1)C(=O)N[C@@H](CO)C(=O)N[C@@H](CCCC)C(=O)N[C@@H](CCC(=O)O)C(=O)N[C@H](C(=O)N[C@@H](CCCNC(=N)N)C(=O)N[C@H](C(=O)N1CCC[C@H]1C(=O)N[C@@H](CC(=O)O)C(=O)N[C@H](C(=O)N[C@@H](CC(N)=O)C(=O)N1CCC[C@H]1C(=O)N[C@@H](C)C(=O)N[C@@H](Cc1c[nH]c2ccccc12)C(=O)N[C@@H](Cc1ccc(O)cc1)C(=O)N[C@H](C(=O)NCC(=O)N[C@@H](CCCNC(=N)N)C(=O)NCC(=O)N[C@H](C(=O)N[C@@H](CCCNC(=N)N)C(=O)N1CCC[C@H]1C(=O)N[C@H](C(=O)NCC(=O)N[C@@H](CCCNC(=N)N)C(=O)N[C@@H](Cc1ccc(O)cc1)C(N)=O)C(C)C)[C@@H](C)CC)[C@@H](C)O)[C@@H](C)CC)[C@@H](C)O)[C@@H](C)O
notes: Tyr at position 31 in place of Phe
B2: analog no. 34 (peptide)
peptide: SRAHQHS[Nle]ETRTPDINPAWYTGRGIRPVGRY-NH2
modifications: N-terminus assumed
SMILES: CCCC[C@H](NC(=O)[C@H](CO)NC(=O)[C@H](Cc1c[nH]cn1)NC(=O)[C@H](CCC(N)=O)NC(=O)[C@H](Cc1c[nH]cn1)NC(=O)[C@H](C)NC(=O)[C@H](CCCNC(=N)N)NC(=O)[C@@H](N)CO)C(=O)N[C@@H](CCC(=O)O)C(=O)N[C@H](C(=O)N[C@@H](CCCNC(=N)N)C(=O)N[C@H](C(=O)N1CCC[C@H]1C(=O)N[C@@H](CC(=O)O)C(=O)N[C@H](C(=O)N[C@@H](CC(N)=O)C(=O)N1CCC[C@H]1C(=O)N[C@@H](C)C(=O)N[C@@H](Cc1c[nH]c2ccccc12)C(=O)N[C@@H](Cc1ccc(O)cc1)C(=O)N[C@H](C(=O)NCC(=O)N[C@@H](CCCNC(=N)N)C(=O)NCC(=O)N[C@H](C(=O)N[C@@H](CCCNC(=N)N)C(=O)N1CCC[C@H]1C(=O)N[C@H](C(=O)NCC(=O)N[C@@H](CCCNC(=N)N)C(=O)N[C@@H](Cc1ccc(O)cc1)C(N)=O)C(C)C)[C@@H](C)CC)[C@@H](C)O)[C@@H](C)CC)[C@@H](C)O)[C@@H](C)O
notes: as for B1
B3: analog no. 47 (peptide)
peptide: Myristoyl-[Nle]ETRTPDINPAWYTGRGIRPVGRF-NH2
SMILES: CCCCCCCCCCCCCC(=O)N[C@@H](CCCC)C(=O)N[C@@H](CCC(=O)O)C(=O)N[C@H](C(=O)N[C@@H](CCCNC(=N)N)C(=O)N[C@H](C(=O)N1CCC[C@H]1C(=O)N[C@@H](CC(=O)O)C(=O)N[C@H](C(=O)N[C@@H](CC(N)=O)C(=O)N1CCC[C@H]1C(=O)N[C@@H](C)C(=O)N[C@@H](Cc1c[nH]c2ccccc12)C(=O)N[C@@H](Cc1ccc(O)cc1)C(=O)N[C@H](C(=O)NCC(=O)N[C@@H](CCCNC(=N)N)C(=O)NCC(=O)N[C@H](C(=O)N[C@@H](CCCNC(=N)N)C(=O)N1CCC[C@H]1C(=O)N[C@H](C(=O)NCC(=O)N[C@@H](CCCNC(=N)N)C(=O)N[C@@H](Cc1ccccc1)C(N)=O)C(C)C)[C@@H](C)CC)[C@@H](C)O)[C@@H](C)CC)[C@@H](C)O)[C@@H](C)O
notes: lipidated shortened PrRP31 analog
B4: analog no. 49 (peptide)
peptide: Myristoyl-QHSMETRTPDINPAWYTGRGIRPVGRF-NH2
SMILES: CCCCCCCCCCCCCC(=O)N[C@@H](CCC(N)=O)C(=O)N[C@@H](Cc1c[nH]cn1)C(=O)N[C@@H](CO)C(=O)N[C@@H](CCSC)C(=O)N[C@@H](CCC(=O)O)C(=O)N[C@H](C(=O)N[C@@H](CCCNC(=N)N)C(=O)N[C@H](C(=O)N1CCC[C@H]1C(=O)N[C@@H](CC(=O)O)C(=O)N[C@H](C(=O)N[C@@H](CC(N)=O)C(=O)N1CCC[C@H]1C(=O)N[C@@H](C)C(=O)N[C@@H](Cc1c[nH]c2ccccc12)C(=O)N[C@@H](Cc1ccc(O)cc1)C(=O)N[C@H](C(=O)NCC(=O)N[C@@H](CCCNC(=N)N)C(=O)NCC(=O)N[C@H](C(=O)N[C@@H](CCCNC(=N)N)C(=O)N1CCC[C@H]1C(=O)N[C@H](C(=O)NCC(=O)N[C@@H](CCCNC(=N)N)C(=O)N[C@@H](Cc1ccccc1)C(N)=O)C(C)C)[C@@H](C)CC)[C@@H](C)O)[C@@H](C)CC)[C@@H](C)O)[C@@H](C)O
notes: as for B3
B5: analog no. 43 (peptide)
peptide: Myristoyl-TPDINPAWYTGRGARPFGRF-NH2
SMILES: CCCCCCCCCCCCCC(=O)N[C@H](C(=O)N1CCC[C@H]1C(=O)N[C@@H](CC(=O)O)C(=O)N[C@H](C(=O)N[C@@H](CC(N)=O)C(=O)N1CCC[C@H]1C(=O)N[C@@H](C)C(=O)N[C@@H](Cc1c[nH]c2ccccc12)C(=O)N[C@@H](Cc1ccc(O)cc1)C(=O)N[C@H](C(=O)NCC(=O)N[C@@H](CCCNC(=N)N)C(=O)NCC(=O)N[C@@H](C)C(=O)N[C@@H](CCCNC(=N)N)C(=O)N1CCC[C@H]1C(=O)N[C@@H](Cc1ccccc1)C(=O)NCC(=O)N[C@@H](CCCNC(=N)N)C(=O)N[C@@H](Cc1ccccc1)C(N)=O)[C@@H](C)O)[C@@H](C)CC)[C@@H](C)O

The target of one assay is T1, rat PrRP receptor in RC-4B/C cells. The assay is described as follows: competition with 125I-rat PrRP31 on RC-4B/C cells. The protocol: The rat pituitary cell line RC-4B/C (ATCC, Manassas, USA) was grown on 24-well plates which had their bottom coated with polyethyleneimine. The cells were grown to the optimal density of 300-450 thousand per well.
(§1) Plates were incubated for 60 minutes at room temperature. After incubation, the cells were solubilized in 0.1 mol/l solution of NaOH and the radioactivity bound to the cells was counted using a γ-counter. The experiments were performed in duplicate and repeated at least three times.
For evaluation of competitive binding experiments, the program Graph Pad Prism Software (San Diego, Calif., USA) was used. A method of nonlinear regression assuming one-site binding was used.
Myristoyl-SRAHQHS[Nle]ETRTPDINPAWYTGRGIRPVGRF-NH2 [analog no. 18]: the affinity, expressed as Ki, was 0.69 nM.
On to SRAHQHS[Nle]ETRTPDINPAWYTGRGIRPVGRF-NH2 [analog no. 14], for which the Ki (in general, a dissociation constant, usually derived from enzyme kinetics or from competition with a known ligand) stood at 1.28 nM.
The same measure, in the same setting: under Palmitoyl-SRAHQHS[Nle]ETRTPDINPAWYTGRGIRPVGR[1Nal]-NH2 [analog no. 23] stands 2.17 nM; under Myristoyl-SRAHQHS[Nle]ETRTPDINPAWYTGRGIRPVGR[1Nal]-NH2 [analog no. 22], 3.96 nM; under SRAHQHS[Nle]ETRTPDINPAWYTGRGIRPVGR[1Nal]-NH2 [analog no. 21], 102 nM.
For the molecule B1, the inhibition constant (Ki) stood at 0.44 nM.
On the same count and under the same terms, with B2 the figure was 3.25 nM.
The same measure, in the same setting: under Lauroyl-SRAHQHS[Nle]ETRTPDINPAWYTGRGIRPVGRF-NH2 [analog no. 17] stands 0.39 nM; under Stearoyl-SRAHQHS[Nle]ETRTPDINPAWYTGRGIRPVGRF-NH2 [analog no. 20], 0.96 nM.
The same measure, in the same setting: under B3 stands 0.45 nM; under Decanoyl-SRAHQHS[Nle]ETRTPDINPAWYTGRGIRPVGRF-NH2 [analog no. 16], 0.65 nM; under Octanoyl-SRAHQHS[Nle]ETRTPDINPAWYTGRGIRPVGRF-NH2 [analog no. 15], 0.98 nM.
SRAHQHS[Nle]ETRTPDINPAWYTGRGIRPVGR[PheCl2]-NH2 [analog no. 24] returned an inhibition constant (Ki) of 3.84 nM.
For QHSMETRTPDINPAWYTGRGIRPVGRF-NH2 (shortened PrRP31 analog) [analog no. 48], the inhibitory constant (Ki) worked out at 2.61 nM.
B4 returned an inhibition constant Ki of 0.37 nM.
Palmitoyl-SRAHQHS[Nle]ETRTPDINPAWYTGRGIRPVGRF-NH2 [analog no. 19] came in with a Ki of 0.51 nM.
On the same count and under the same terms, under TPDINPAWYTGRGARPFGRF-NH2 [analog no. 42] stands 655 nM; under B5, 7.21 nM.

The target in the next assay is T2, human PrRP receptor, GPR10, transfected …. The assay is described as follows: competition with 125I-human PrRP31 on CHO cells with transfected human GPR10. The procedure:
CHO cells with transfected human PrRP receptor, GPR10 (Perkin Elmer, USA) were grown on 24-well plates coated with polyethyleneimine. The cells were grown to the optimal density of 40-80 thousand cells per well.
as §1
Myristoyl-SRAHQHS[Nle]ETRTPDINPAWYTGRGIRPVGRF-NH2 [analog no. 18] registered a Ki of 0.71 nM.
Same read-out and setting: with SRAHQHS[Nle]ETRTPDINPAWYTGRGIRPVGRF-NH2 [analog no. 14] the figure was 1.92 nM.
Palmitoyl-SRAHQHS[Nle]ETRTPDINPAWYTGRGIRPVGR[1Nal]-NH2 [analog no. 23] showed a Ki of 4.27 nM.
Same read-out and setting: under Myristoyl-SRAHQHS[Nle]ETRTPDINPAWYTGRGIRPVGR[1Nal]-NH2 [analog no. 22] stands 1.33 nM.
SRAHQHS[Nle]ETRTPDINPAWYTGRGIRPVGR[1Nal]-NH2 [analog no. 21] yielded a Ki of 34.5 nM.
The same measure, in the same setting: under B1 stands 1.57 nM; under B2, 2.02 nM.
Regarding Lauroyl-SRAHQHS[Nle]ETRTPDINPAWYTGRGIRPVGRF-NH2 [analog no. 17], the inhibitory constant (Ki) turned out to be 1.19 nM.
On to Stearoyl-SRAHQHS[Nle]ETRTPDINPAWYTGRGIRPVGRF-NH2 [analog no. 20], for which the affinity, expressed as Ki, was 5.39 nM.
The molecule B3 yielded an inhibitory constant (Ki) of 5.48 nM.
Still for that read-out and setting: with Decanoyl-SRAHQHS[Nle]ETRTPDINPAWYTGRGIRPVGRF-NH2 [analog no. 16] the figure was 1.46 nM; with Octanoyl-SRAHQHS[Nle]ETRTPDINPAWYTGRGIRPVGRF-NH2 [analog no. 15], 1.53 nM.
On the same count and under the same terms, under SRAHQHS[Nle]ETRTPDINPAWYTGRGIRPVGR[PheCl2]-NH2 [analog no. 24] stands 2.27 nM; under QHSMETRTPDINPAWYTGRGIRPVGRF-NH2 (shortened PrRP31 analog) [analog no. 48], 5.92 nM.
Molecule B4 returned a Ki of 6.93 nM.
With Palmitoyl-SRAHQHS[Nle]ETRTPDINPAWYTGRGIRPVGRF-NH2 [analog no. 19], the affinity, expressed as Ki, was 3.03 nM.
Still for that read-out and setting: with TPDINPAWYTGRGARPFGRF-NH2 [analog no. 42] the figure was 583 nM; with B5, 8.47 nM.
